Where a chain is given by its changes, count along the chain named.
T1: T4A
T1 construct: single alanine mutant of hCCR8; also called hCCR8 T4A
T1 receptor chain: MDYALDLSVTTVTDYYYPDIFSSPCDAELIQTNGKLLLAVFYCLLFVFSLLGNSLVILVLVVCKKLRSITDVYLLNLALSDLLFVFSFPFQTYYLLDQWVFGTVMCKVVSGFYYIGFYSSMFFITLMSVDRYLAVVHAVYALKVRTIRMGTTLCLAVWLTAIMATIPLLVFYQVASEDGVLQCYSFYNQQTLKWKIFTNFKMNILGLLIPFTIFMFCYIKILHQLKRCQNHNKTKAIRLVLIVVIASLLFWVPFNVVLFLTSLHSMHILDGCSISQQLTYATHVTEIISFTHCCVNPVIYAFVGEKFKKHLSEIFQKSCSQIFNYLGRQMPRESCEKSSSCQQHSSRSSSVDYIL

T2: V9A
T2 construct: single alanine mutant of hCCR8; also called hCCR8 V9A
T2 receptor chain: T1 receptor chain with A4T, V9A

T3: P18A
T3 construct: single alanine mutant of hCCR8; also called hCCR8 P18A
T3 receptor chain: T1 receptor chain with A4T, P18A

T4: T10A
T4 construct: single alanine mutant of hCCR8; also called hCCR8 T10A
T4 receptor chain: T1 receptor chain with A4T, T10A

T5: T11A
T5 construct: single alanine mutant of hCCR8; also called hCCR8 T11A
T5 receptor chain: T1 receptor chain with A4T, T11A

B1: hu.Ab5.H13L1 (antibody, human IgG1, kappa)
heavy: not shown
light: DIQVTQSPSSLSASVGDRVTITCQASENIANALAWYQQKPGKPPKFLIYGASNLASGVPSRFSGSGSGTDFTFTISSLQPEDIATYYCQQAYYGNSFVEGTFGGGTKVEIKRTVAAPSVFIFPPSDEQLKSGTASVVCLLNNFYPREAKVQWKVDNALQSGNSQESVTEQDSKDSTYSLSSTLTLSKADYEKHKVYACEVTHQGLSSPVTKSFNRGEC
notes: fucosylated human IgG1; also called Ab5 variant
B2: hu.Ab4.H12L3 (antibody, human IgG1, kappa)
heavy: not shown
light: DYQMTQSPSSLSASVGDRVTITCQASQSISSYLSWYQQKPGKAPKLLIYKASTLASGVPSRFSGSGSGTDFTLTISSLQPEDFATYYCQQGYTSSNIDNIFGGGTKVEIKRTVAAPSVFIFPPSDEQLKSGTASVVCLLNNFYPREAKVQWKVDNALQSGNSQESVTEQDSKDSTYSLSSTLTLSKADYEKHKVYACEVTHQGLSSPVTKSFNRGEC
notes: fucosylated human IgG1; also called huCCR8-Ab4.H12L3.hIgG1; Ab4 variant

What was measured:
[1] = target: T6, CCR8 with C-terminal FLAG; assay: flow cytometry, HEK293 transfected with CCR8 with C-terminal FLAG
T6 construct: expressed on transfected HEK293 cells; also called hCCR8 with a C-terminal FLAG tag

T4A = target: T1, T4A; assay: flow cytometry, HEK293 transfected with hCCR8 T4A with C-terminal FLAG; sheet prints [huCCR8]=0.02 ug/ml
Procedure: (§1) FIGS. 16A-16B depict the epitope maps for hu.Ab5.H13L1 (FIG. 16A) and hu.Ab4.H12L3 (FIG. 16B) mAbs.
(§2) To epitope map fucosylated hu.Ab5.H13L1, the binding to alanine point mutations in human CCR8 was analyzed by flow cytometry.

V9A = target: T2, V9A; assay: flow cytometry, HEK293 transfected with hCCR8 V9A with C-terminal FLAG; sheet prints [huCCR8]=0.02 ug/ml
P18A = target: T3, P18A; assay: flow cytometry, HEK293 transfected with hCCR8 P18A with C-terminal FLAG; sheet prints [huCCR8]=0.02 ug/ml
T10A = target: T4, T10A; assay: flow cytometry, HEK293 transfected with hCCR8 T10A with C-terminal FLAG; sheet prints [huCCR8]=0.02 ug/ml
T11A = target: T5, T11A; assay: flow cytometry, HEK293 transfected with hCCR8 T11A with C-terminal FLAG; sheet prints [huCCR8]=0.02 ug/ml
Procedure: as §1, §2

human CCR8 [2] = target: T7, human CCR8 (human, UniProt P51685 1-355); assay: cell-based or functional assay
human CCR8 [3] = target: T7, human CCR8; assay: cell-based or functional assay; remark: listed apart in the source
[4] = target: T8, human CCR8.CCR5 chimera ECL1 (human, UniProt P51681 86-99, limits assumed); assay: flow cytometry, 293 cells transfected with the CCR8.CCR5 chimera ECL1 with C-terminal FLAG
T8 construct: domain: ECL1; on transfected 293 cells; also called ECL1 chimera
Procedure: To epitope map fucosylated hu.Ab4.H12L3, the binding to chimeric forms of human CCR8 was analyzed by flow cytometry.

binding result [1]	binding result (T4A)	binding result (V9A)	binding result (P18A)	binding result (T10A)	binding result (T11A)	Ligand Blocking Activity IC50, Ca2+ influx (human CCR8 [2]) [nM]	ADCP EC50, macrophages HR/FF (FIG. 14A) (human CCR8 [3]) [nM]	ADCP EC50, macrophages RR/FF (FIG. 14B) (human CCR8 [3]) [nM]	ADCP EC50, macrophages RR/VF (FIG. 14D) (human CCR8 [3]) [nM]	binding result [4]	Binder
binds	binds	binds	binds	binds	binds	–	–	–	–	–	B1
–	–	–	–	–	–	57.9	0.35	0.81	0.41	no binding	B2

From US20230049152A1 (Genentech, published 2023)
